1 substance from article PMC6478609 can be followed below.

What is called stoichiometry N is a count of units in the complex or per binding partner.

The test addresses TRPM8FA with the Ala805→Gly mutation (TRPM8_(FA_AG)) (collared flycatcher Ficedula albicollis) (UniProt U3JD03). Nature of the test: cryo-EM structure.

“TRPM8FA with the Ala805→Gly mutation (TRPM8_(FA_AG)) (from UniProt U3JD03 1-1115) (natural protein)”: the stoichiometry N amounted to 4.
